Residue numbers refer to the chain shown, from its start. Names and notes keep the numbering of the source. Values belong to the binder of their own block, whether it stands above or below them.
Tests used:
[1] = target: T1, cynomolgus monkey FcγRIIb extracellular domain, His-tagged (cynomolgus monkey); experiment: SPR (Biacore), 25C, KD of SG1 / KD of variant
T1 construct: also called cyno FcgRIIb
T1 chain: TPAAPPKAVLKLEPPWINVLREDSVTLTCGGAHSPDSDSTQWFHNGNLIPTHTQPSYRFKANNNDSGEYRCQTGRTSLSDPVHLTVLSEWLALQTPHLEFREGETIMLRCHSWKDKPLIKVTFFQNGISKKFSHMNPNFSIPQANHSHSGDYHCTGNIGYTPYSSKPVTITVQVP

[2] = target: T2, cynomolgus monkey FcγRIIIaS extracellular domain, His-tagged (cynomolgus monkey, UniProt Q8SPW2 21-206 at identity 1.00)); experiment: SPR (Biacore), 25C, KD of SG1 / KD of variant
T2 construct: also called cyno FcgRIIIaS
T2 chain: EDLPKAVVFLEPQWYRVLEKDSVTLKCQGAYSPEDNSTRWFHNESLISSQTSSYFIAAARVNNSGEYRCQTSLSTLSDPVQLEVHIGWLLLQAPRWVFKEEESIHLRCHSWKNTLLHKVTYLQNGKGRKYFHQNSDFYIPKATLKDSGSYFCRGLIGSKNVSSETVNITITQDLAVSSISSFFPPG

[3] = target: T3, human FcγRIIaH extracellular domain, His-tagged (human, UniProt P12318 34-217); experiment: SPR (Biacore), 25C, KD of SG1 / KD of variant
T3 construct: also called human FcgRIIaH; FcγRIIa type H
T3 sequence: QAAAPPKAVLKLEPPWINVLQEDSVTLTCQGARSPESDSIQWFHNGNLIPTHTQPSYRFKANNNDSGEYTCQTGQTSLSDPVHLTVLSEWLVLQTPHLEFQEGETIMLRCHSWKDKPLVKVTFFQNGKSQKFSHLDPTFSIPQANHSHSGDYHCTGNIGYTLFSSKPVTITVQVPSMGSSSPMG

[4] = target: T4, human FcγRIIIaV extracellular domain, His-tagged (human, UniProt P08637 17-208); experiment: SPR (Biacore), 25C, KD of SG1 / KD of variant
T4 construct: also called human FcgRIIIaV
T4 sequence (P08637 17-208 F176V): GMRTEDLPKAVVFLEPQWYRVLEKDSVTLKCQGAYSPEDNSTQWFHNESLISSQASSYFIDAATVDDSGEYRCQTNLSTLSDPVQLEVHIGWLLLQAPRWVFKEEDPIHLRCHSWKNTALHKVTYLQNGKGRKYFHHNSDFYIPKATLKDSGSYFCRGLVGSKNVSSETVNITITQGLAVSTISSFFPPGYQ

[5] = target: T5, cynomolgus monkey FcγRIIa2 extracellular domain, His-tagged (cynomolgus monkey); experiment: SPR (Biacore), 25C, KD of SG1 / KD of variant
T5 construct: also called cyno FcgRIIa2
T5 chain: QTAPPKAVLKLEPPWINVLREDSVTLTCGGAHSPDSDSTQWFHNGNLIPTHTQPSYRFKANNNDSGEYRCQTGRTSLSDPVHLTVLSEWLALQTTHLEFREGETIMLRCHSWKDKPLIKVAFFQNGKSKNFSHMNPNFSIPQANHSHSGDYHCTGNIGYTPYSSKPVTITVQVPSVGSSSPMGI

[6] = target: T6, cynomolgus monkey FcγRIIa3 extracellular domain, His-tagged (cynomolgus monkey); experiment: SPR (Biacore), 25C, KD of SG1 / KD of variant
T6 construct: also called cyno FcgRIIa3
T6 chain: T5 chain with K127I, N130K, H133P, Q142R

[7] = target: T7, human FcγRIIb extracellular domain, His-tagged (human, UniProt P31994 43-217); experiment: SPR (Biacore), 25C, KD of SG1 / KD of variant
T7 construct: also called human FcgRIIb
T7 sequence: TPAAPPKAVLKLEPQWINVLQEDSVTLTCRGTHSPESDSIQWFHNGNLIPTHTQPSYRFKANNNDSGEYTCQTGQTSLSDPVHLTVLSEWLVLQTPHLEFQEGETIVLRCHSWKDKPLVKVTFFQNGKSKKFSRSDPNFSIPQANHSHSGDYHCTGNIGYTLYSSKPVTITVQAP

[8] = target: T8, human FcγRIIaR extracellular domain, His-tagged (human, UniProt P12318 34-217); experiment: SPR (Biacore), 25C, KD of SG1 / KD of variant
T8 construct: also called human FcgRIIaR; FcγRIIa type R
T8 chain: T3 sequence with H134R

[9] = target: T9, cynomolgus monkey FcγRIIa1 extracellular domain, His-tagged (cynomolgus monkey); experiment: SPR (Biacore), 25C, KD of SG1 / KD of variant
T9 construct: also called cyno FcgRIIa1
T9 chain: T5 chain with T95P, A121T, K127I, S128A, N130K, N135D, Q142R

[10] = target: T1, cynomolgus monkey FcγRIIb extracellular …; experiment: SPR (Biacore), 25C, antibody captured, FcgR as analyte
Method: (§1) The kinetic analysis of interactions between these antibodies and FcγR was carried out using BIACORE® T200 or BIACORE® 4000 (GE Healthcare). HBS-EP+ (GE Healthcare) was used as the running buffer, and the measurement temperature was set to 25° C. […] After the measurement, the antibody captured on the chip was washed off by allowing reaction with 10 mM glycine-HCl, pH1.5 and 25 mM NaOH so that the chip was regenerated and used repeatedly. The sensorgrams obtained as measurement results were analyzed by the 1:1 Langmuir binding model using the BIACORE® Evaluation Software to calculate the binding rate constant ka (L/mol/s) and dissociation rate constant kd (1/s), and the dissociation constant KD (mol/L) was calculated from these values. […] Regarding such interactions, KD values were calculated using the following 1:1 binding model described in BIACORE® T100 Software Handbook BR1006-48 Edition AE.

[11] = target: T3, human FcγRIIaH extracellular domain, …; experiment: as above
Method: as §1

[12] = target: T4, human FcγRIIIaV extracellular domain, …; experiment: as above
Method: as §1

[13] = target: T5, cynomolgus monkey FcγRIIa2 …; experiment: as above
Method: as §1

[14] = target: T8, human FcγRIIaR extracellular domain, …; experiment: as above
Method: as §1

[15] = target: T10, cynomolgus monkey FcγRIIa2 extracellular domain with C-terminal His-tag (cynomolgus monkey); experiment: SPR (Biacore), KD of SG1 divided by KD of variant
T10 construct: also called cyno FcgRIIa2; cynoFcγRIIa2
T10 chain: T5 chain

[16] = target: T11, human FcγRIIb extracellular domain with C-terminal His-tag (human, UniProt P31994 43-217); experiment: SPR (Biacore), antibody captured, FcgR as analyte
T11 construct: also called human FcgRIIb
T11 sequence: T7 sequence

[17] = target: T11, human FcγRIIb extracellular domain with …; experiment: SPR (Biacore), KD of SG1 divided by KD of variant
[18] = target: T12, cynomolgus monkey FcγRIIa3 extracellular domain with C-terminal His-tag (cynomolgus monkey); experiment: SPR (Biacore), antibody captured, FcgR as analyte
T12 construct: also called cyno FcgRIIa3; cynoFcγRIIa3
T12 chain: T5 chain with K127I, N130K, H133P, Q142R

[19] = target: T13, human FcγRIIaR extracellular domain with C-terminal His-tag (human, UniProt P12318 34-217); experiment: SPR (Biacore), antibody captured, FcgR as analyte
T13 construct: also called human FcgRIIaR; FcγRIIa (type R)
T13 chain: T3 sequence with H134R

[20] = target: T14, cynomolgus monkey FcγRIIIaS extracellular domain, His-tagged (cynomolgus monkey, UniProt Q8SPW2 21-206 at identity 1.00)); experiment: SPR (BIACORE), antibody captured, FcγR analyte, 25 C; KD of SG1 divided by KD of variant
T14 construct: also called cyno FcγRIIIaS; cynoFcgRIIIaS
T14 chain: T2 chain

[21] = target: T15, human FcγRIIaR extracellular domain, His-tagged (human, UniProt P12318 34-217); experiment: as above
T15 construct: also called human FcγRIIa (type R); FcgRIIaR
T15 chain: T3 sequence with H134R

[22] = target: T16, cynomolgus monkey FcγRIIIaS extracellular domain with C-terminal His-tag (cynomolgus monkey, UniProt Q8SPW2 21-206 at identity 1.00)); experiment: SPR (Biacore), antibody captured, FcgR as analyte
T16 construct: also called cyno FcgRIIIaS; cynoFcγRIIIaS
T16 chain: T2 chain

[23] = target: T17, cynomolgus monkey FcγRIIa1 extracellular domain with C-terminal His-tag (cynomolgus monkey); experiment: SPR (Biacore), antibody captured, FcgR as analyte
T17 construct: also called cyno FcgRIIa1; cynoFcγRIIa1
T17 chain: T5 chain with T95P, A121T, K127I, S128A, N130K, N135D, Q142R

[24] = target: T18, human FcγRIIaH extracellular domain, His-tagged (human, UniProt P12318 34-217); experiment: SPR (BIACORE), antibody captured on chip, FcγR as analyte, 25 C; KD of SG1 divided by KD of the variant
T18 construct: also called human FcγRIIa (type H); FcgRIIaH; not shown: His-tag added to the C-terminus
T18 sequence: T3 sequence
Method: as §1

[25] = target: T19, human FcγRIIIaV extracellular domain, His-tagged (human, UniProt P08637 17-208); experiment: as above
T19 construct: also called human FcγRIIIa (V158 allotype); FcgRIIIaV; not shown: His-tag added to the C-terminus
Method: as §1
T19 sequence (P08637 17-208 F176V): as the sequence (P08637 17-208 F176V) above

B4: M103205H795-MY458/M103202L889-SK1 (antibody, human IgG1, kappa, name in EU numbering)
heavy: QVTLKESGPVLVKPTETLTLTCTVSGIDLSHDDISWVRQAPGKGLEWVGIISYAGSTYYASWAKGRLTISKDTSKNQVVLTMTNMDPVDTATYYCARGVPAYSHGGDLWGQGTLVTVSSASTKGPSVFPLAPSSKSTSGGTAALGCLVKDYFPEPVTVSWNSGALTSGVHTFPAVLQSSGLYSLSSVVTVPSSSLGTQTYICNVNHKPSNTKVDKKVEPKSCDKTHTCPPCPAYELLTGPSVFLFPPKPKDTLMISRTPEVTCVVVDVSDEDPEVKFNWYVDGVEVHNAKTKPREEQYNSTYRVVSVLTVLHQDWLNGKEYKCKVSNKALPKPIEKTISKAKGQPREPQVYTLPPSREEMTKNQVSLTCLVKGFYPSDIAVEWESNGQPENNYKTTPPVLDSDGSFFLYSKLTVDKSRWQQGNVFSCSVMHEALHNHYTQKSLSLSP
light: DIVMTQSPATLSLSPGERATLSCTSSQSVYHANWLSWFQQKPGQPPKLLIYWASTLAYGVPSRFSGSGSGTDFTLTISSLQPEDAATYYCAGGYGGGRYAFGQGTKVEIKRTVAAPSVFIFPPSDEQLKSGTASVVCLLNNFYPREAKVQWKVDNALQSGNSQESVTEQDSKDSTYSLSSTLTLSKADYEKHKVYACEVTHQGLSSPVTKSFNRGEC
- KD fold (SG1 = 1) [20]: 0.2 fold
- KD fold (SG1 = 1) [21]: 4.3 fold

B5: M103205H795-MY526 / M103202L889-SK1 (antibody, human IgG1, kappa, name in EU numbering)
heavy: B4 heavy with A233T, Y234P, S241V, Q297L
light: B4 light
- Kd [22]: 1600 nM
- Kd [23]: 1300 nM

B6: M103205H795-MY321/M103202L889-SK1 (antibody, human IgG1, kappa, name in EU numbering)
heavy: B4 heavy with Y234P, T238H, P398M
light: B4 light
notes: Fc variant made by introducing substitutions into M103205H795-SG1; expressed with M103202L889-SK1 as light chain; Substitution positions are EU numbering
- KD fold for humanFcgRs (SG1 = 1) [24]: 9.7 fold
- KD fold for humanFcgRs (SG1 = 1) [25]: 0.24 fold

More lines, now with the values ahead:

- KD fold (SG1 = 1) [1]: 0.4
- KD fold (SG1 = 1) [2]: 0.004
- KD fold (SG1 = 1) [3]: 0.01
- KD fold (SG1 = 1) [4]: 0.002
- KD fold (SG1 = 1) [5]: 0.2
- KD fold (SG1 = 1) [6]: 0.5
- KD fold (SG1 = 1) [7]: 3.3
- KD fold (SG1 = 1) [8]: 0.1
- KD fold (SG1 = 1) [9]: 0.2
- Kd [10]: 4300 nM
- Kd [11]: 3500 nM
- Kd [12]: 550000 nM
- Kd [13]: 2000 nM
- Kd [14]: 2000 nM
B1: MS1032LO06-MY009 (antibody, human IgG1, kappa)
heavy: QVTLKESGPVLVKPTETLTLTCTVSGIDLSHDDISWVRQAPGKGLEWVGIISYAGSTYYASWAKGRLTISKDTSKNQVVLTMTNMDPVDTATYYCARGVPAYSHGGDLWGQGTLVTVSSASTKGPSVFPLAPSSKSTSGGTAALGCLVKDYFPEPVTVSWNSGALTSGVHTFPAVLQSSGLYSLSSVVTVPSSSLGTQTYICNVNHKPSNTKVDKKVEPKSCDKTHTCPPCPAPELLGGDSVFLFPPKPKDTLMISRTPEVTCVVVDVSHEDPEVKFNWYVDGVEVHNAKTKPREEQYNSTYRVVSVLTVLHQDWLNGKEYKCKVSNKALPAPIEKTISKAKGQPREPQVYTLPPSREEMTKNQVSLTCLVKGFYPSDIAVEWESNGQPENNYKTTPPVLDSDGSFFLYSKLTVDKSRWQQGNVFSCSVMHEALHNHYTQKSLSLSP
light: B4 light
notes: SG1 with P238D (EU numbering); also called M103205H795-MY009/M103202L889-SK1

- KD fold (SG1 = 1) [15]: 3.5 fold
- Kd [16]: 1200 nM
B2: M103205H795-MY534 / M103202L889-SK1 (antibody, human IgG1, kappa, name in EU numbering)
heavy: B4 heavy with Y234P, S241V, Q297L
light: B4 light

- KD fold (SG1 = 1) [17]: 1.6 fold
- Kd [18]: 9800 nM
- Kd [19]: 630 nM
B3: M103205H795-MY339 / M103202L889-SK1 (antibody, human IgG1, kappa, name in EU numbering)
heavy: B4 heavy with Y234P, T238L, K328T, P398K
light: B4 light
